doi:10.1101/2025.01.22.634233 (bioRxiv, 2025)

T1: biotinylated Avi-BARD1^554-777, wild type (human, UniProt Q99728 554-777, biotinylated by MBP-BirA)
T1 sequence: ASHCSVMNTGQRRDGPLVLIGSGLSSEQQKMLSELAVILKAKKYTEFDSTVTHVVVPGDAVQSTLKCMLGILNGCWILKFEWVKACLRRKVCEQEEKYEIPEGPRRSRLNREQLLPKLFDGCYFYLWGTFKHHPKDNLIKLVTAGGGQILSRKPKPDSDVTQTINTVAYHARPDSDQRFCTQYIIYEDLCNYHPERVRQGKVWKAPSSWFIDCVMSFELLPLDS

B1: BARD1 BRCT (BARD1^554-777), wild type (domain or fragment)
chain: ASHCSVMNTGQRRDGPLVLIGSGLSSEQQKMLSELAVILKAKKYTEFDSTVTHVVVPGDAVQSTLKCMLGILNGCWILKFEWVKACLRRKVCEQEEKYEIPEGPRRSRLNREQLLPKLFDGCYFYLWGTFKHHPKDNLIKLVTAGGGQILSRKPKPDSDVTQTINTVAYHARPDSDQRFCTQYIIYEDLCNYHPERVRQGKVWKAPSSWFIDCVMSFELLPLDS
B2: pS5pS7 GST-(CTD)26 (domain or fragment)
chain: not shown
modifications: phosphoserine at S5 and S7 of the CTD heptads (pS5pS7)

Tests used:
cross-linking = target: the molecule itself; experiment: cross-linking
[1] = target: T1, biotinylated Avi-BARD1^554-777, wild …; experiment: BLI

Binder | binding result (cross-linking) | Kd [1] [nM]
B1 | binds | 
B2 |  | 193
